From patent publication US20150335719A1, “Intravitreal Injection of a Chimeric Phage Endolysin Ply187; Protection from Staphylococcus aureus Endophthalmitis” (priority 2014, published 2015)
“And” between values parts separate entries of the source, which are not always exact repeats. Equal entries are not always repeated.

Key:
[1] = test system: S. aureus RN6390 endophthalmitis; assay: Mouse S. aureus endophthalmitis: clinical score and slit lamp microscopy; assay type: in vivo, C57BL/6 mice; details: for mean clinical score: scored after 24 h, scale 0 to 4
Experimental: FIGS. 3A-3E show the effects of intravitreal injection of chimeric Ply187AN-KSH3b on the severity of S. aureus endophthalmitis. The eyes (n=10) of C57BL/6 mice were infected with S. aureus strain RN6390 and following either 6 h or 12 h post-infection, Ply187AN-KSH3b or EB (EB C) was administered by intravitreal injection. FIG. 3A depicts individual eyes assigned clinical scores (range 0 to 4; black dots represent an eye) and presented as mean clinical scores (bar with SEM). […] FIG. 3E depicts the total number of dead cells in the retinal sections that were counted and are presented as mean±SD of the TUNEL positive cells. A student's t test (**, p<0.005) was used for the statistical analysis and comparisons were made between the S. aureus (SA) control, SA+EBC, and SA+Ply187AN-KSH3b-treated group.
The eyes of C57BL/6 mice (female, 8 week old) were intravitreally injected with 1 μl of PBS containing 5000 colony forming units (CFU) of S. aureus RN6390 to induce endophthalmitis as described previously (Kumar et al., supra). The chimeric Ply187AN-KSH3b (1 μg/μl) treatment in EB was given after 6 h (group I) or 12 h (group II) post infection. In the control group, the eyes were treated with EB (EB C). The eye infected with S. aureus without any treatment was used as a disease control. Clinical examinations were performed using slit lamp microscopy. The ocular disease was graded, and clinical scores from 0 to 4.0 were assigned using the previously described scale (Whiston et al., supra; Ramadan et al. 2006. Curr. Eye Res. 31:955-965). The clinical score of 4 is considered as 100 percent damage. Based on this, the percent damage and percent retention of eyes were calculated in both Ply187AN-KSH3b-treated vs untreated S. aureus infected eyes. Mice were treated in compliance with the ARVO Statement for the Use of Animals in Ophthalmic and Vision Research and all procedures were approved by the Institutional Animal Care and Use Committee (IACUC) of Wayne State University.
We hypothesized that similar to antibiotics, chimeric Ply187AN-KSH3b would have beneficial effects in protecting the eyes from endophthalmitis. To test this hypothesis, we used a C57BL/6 mouse model of S. aureus endophthalmitis. Chimeric Ply187AN-KSH3b was administrated intravitreally (1 μg/eye in 1 μl volume of EB) 6 h and 12 h after bacterial infection. Eyes without any treatment or eyes injected with EB served as controls. After 24 h, each infected eye was assigned a clinical score.

[2] = test system: neutrophil (PMN) infiltration in retina/vitreous; assay: Mouse S. aureus endophthalmitis: PMN infiltration by flow cytometry (CD45/Ly6G); assay type: in vivo, C57BL/6 mice; details: vs vehicle-treated/control eyes, 24 h post treatment
Experimental: FIG. 6 depicts infiltration of polymorphonuclear cells (PMNs) in the Ply187AN-KSH3b-treated mouse retina/vitreous cavity. Infected eyes were given intravitreal injections of either EB or chimeric Ply187AN-KSH3b for either 6 or 12 h post infection. Twenty four hour post Ply187AN-KSH3b treatment, the eyes (n=6) were enucleated and the retina/vitreous humor from two eyes were pooled to make single-cell suspensions. The cells were stained with anti-CD45 and anti-Ly6G mAbs. Post-acquisition, the cells were size-gated to differentiate them from debris. The percentage of dually positive PMNs was determined using a CD45-versus-Ly6G dot plot (upper-right quadrant). The data are summarized in a bar graph representative of duplicate experiments. *p<0.05 (student t-test)
Following euthanasia, the retinas were isolated from the eyes as described by Skeie et al. (2011. J. Vis. Exp. 50:2795) and were digested in Accumax (Millipore, Billerica, Mass.) for 10 min at 37° C. Retinas from two eyes were pooled together to obtain a sufficient number of cells. Following digestion, the retinal tissue was passed through a 23-gauge needle & syringe and filtered through a 40 μm cell strainer (BD Falcon, San Jose, Calif.). […] After subsequent washing steps, the cells were acquired on an Accuri C6 flow cytometer (Accuri, Ann Arbor, Mich.), and the data were analyzed using Accuri C6 software (Accuri, Ann Arbor, Mich.).

[3] = test system: S. aureus; assay: Antimicrobial activity in the presence of calf vitreous humor in vitro; assay type: cell-based, Staphylococcus aureus; details: calf VH, 10^5 CFU, 2, 4 and 6 h
Text: FIGS. 4 A, B and C depict the effect of chimeric Ply187AN-KSH3b on bacterial growth in vivo and in the vitreous humor (VH) in vitro and with increasing inoculums in vitro respectively. […] Twenty-four hours after the treatment, the eyes were enucleated, homogenized and the bacterial burden was estimated via serial dilution plating. FIG. 4B depicts a test showing the effect of the vitreous humor on Ply187AN-KSH3b antimicrobial activity where Ply187AN-KSH3b was mixed with calf vitreous humor and inoculated with 10^5 CFU of S. aureus. The survival of the bacteria was enumerated by CFU count at 2, 4 and 6 h of incubation. Statistical analysis was performed using unpaired student's t test (*, p<0.05; **, p<0.005; ***, p<0.0005). […] An increasing number of dilutions (1:10,000 to 1:10) of logarithmic phase of S. aureus (RN6390 strain) were treated with Ply187AN-KSH3b for 1 h followed by CFU enumeration on TSA plates. Statistical analysis was performed using unpaired student's t test (*, p<0.05; **, p<0.005; ***, p<0.0005).
To determine the effect of Vitreous Humor (VH) on antimicrobial activity of chimeric Ply187AN-KSH3b in vitro, bacteria (10^5 CFU) were incubated with chimeric Ply187AN-KSH3b in the presence of calf VH. Following incubation at 37° C. for the desired time, bacterial growth in VH was enumerated by serial dilution plating. […]

[4] = test system: retinal function in S. aureus-infected eyes; details: treatment 6 h post infection, ERG 24 h post treatment
Experimental: The percentage amplitude of the a- and b-waves retained in S. aureus (SA)-infected, treated and untreated mice were compared to normal uninfected mice and presented as mean±SD (FIG. 7D).
Scotopic ERG was used to determine retinal function following S. aureus infection and chimeric Ply187AN-KSH3b treatment (6 h post infection). The mice (control, infected and infected+treated) were anesthetized 24 h post Ply187AN-KSH3b treatment, maintained at 37° C. using a heat pad, and the pupils were dilated using 1% tropicamide ophthalmic solution. ERGs were recorded following bilateral mydriasis and at least 4 h of dark adaptation. Silver embedded thread eye electrodes (Ocuscience™ LLC, Kansas City, Mo.) were used to record the ERG. Reference needle electrodes (stainless steel subdermal needle electrodes) were placed in anterior scalp and a ground needle electrode was placed in the tail. ERG responses were acquired using an ERG system (Ocuscience™ LLC, Kansas City, Mo.) and analyzed using ERGVIEW 4.380V. Ganzfeld light stimulus was used to present ten 10 ms flashes, with light intensities, increasing from 0.0001 to 100 cd-s/m^2. The ERG a-wave was measured as amplitude between the ERG baseline and the first negative peak, and the ERG b-wave was measured as amplitude between the first negative peak and the first positive peak.

B1: Ply187AN-KSH3b: staphylococcal peptidoglycan hydrolase fusion protein: endopeptidase domain of prophage endolysin Ply187 plus SH3b cell wall-binding domain of phage K endolysin LysK (SEQ ID NO:1) (protein)
chain: MALPKTGKPTAKQVVDWAINLIGSGVDVDGYYGRQCWDLPNYIFNRYWNFKTPGNARDMAWYRYPEGFKVFRNTSDFVPKPGDIAVWTGGNYNWNTWGHTGIVVGPSTKSYFYSVDQNWNNSNSYVGSPAAKIKHSYFGVTHFVRPAYKAEPKPTPPLESTPATRPVTGSWKKNQYGTWYKPENATFVNGNQPIVTRIGSPFLNAPVGGNLPAGATIVYDEVCIQAGHIWIGYNAYNGNRVYCPVRTCQGVPPNQIPGVAWGVFKVEHHHHHH
modifications: Chemically Synthesized Fusion Protein
B1 was tested, and the “slit lamp microscopy appearance of eyes” value ([1]; 1 μg/eye intravitreal) was “clear/transparent corneas and/or anterior chambers”, the mean clinical score ([1]; treatment 6 h post infection, 1 μg/eye intravitreal) was 0.2 and the mean clinical score ([1]; treatment 12 h post infection, 1 μg/eye intravitreal) was 0.3. The “retention of eyes (conversion of clinical scores)” value ([1]; treatment group, clinical score 4 = 100 percent damage) was 90-95%, the “reduction in neutrophil (PMN) infiltration” value [2] was 40-50% and ~50% and the “killing activity in presence of vitreous humor (viable count)” value [3] was “does not adversely affect the killing activity”. The “ERG a- and b-wave amplitudes” value [4] was “no significant decline in a- or b-wave amplitudes” and the “a- and b-wave amplitudes retained” value ([4]; vs uninfected) was 90-95%.
